Legend:
[1] = substrate: NCc1ccccc1; assay: Substrate activity with BPAO; type: biochemical, bovine; settings: other: UV-vis spectrophotometry, pH 7.2 phosphate buffer, 30 °C
[2] = substrate: COc1ccc2cc(CN)ccc2c1; assay: Substrate activity with BPAO; type: biochemical, bovine; settings: other: UV-vis spectrophotometry, pH 7.2 phosphate buffer, 30 °C

B1: bovine plasma amine oxidase (BPAO) (Bos taurus) (protein)
chain: REEGGVGSEEGVGKQCHPSLPPRCPSRSPSDQPWTHPDQSQLFADLSREELTTVMSFLTQQLGPDLVDAAQARPSDNCVFSVELQLPPKAAALAHLDRGSPPPAREALAIVFFGGQPQPNVTELVVGPLPQPSYMRDVTVERHGGPLPYYRRPVLLREYLDIDQMIFNRELPQAAGVLHHCCSYKQGGQKLLTMNSAPRGVQSGDRSTWFGIYYNITKGGPYLHPVGLELLVDHKALDPADWTVQKVFFQGRYYENLAQLEEQFEAGQVNVVVIPDDGTGGFWSLKSQVPPGPTPPLQFHPQGPRFSVQGNRVASSLWTFSFGLGAFSGPRVFDVRFQGERLAYEISLQEAGAVYGGNTPAAMLTRYMDSGFGMGYFATPLIRGVDCPYLATYMDWHFVVESQTPKTLHDAFCVFEQNKGLPLRRHHSDFLSHYFGGVAQTVLVFRSVSTMLNYDYVWDMVFYPNGAIEVKLHATGYISSAFLFGAARRYGNQVGEHTLGPVHTHSAHYKVDLDVGGLENWVWAEDMAFVPTAIPWSPEHQIQRLQVTRKQLETEEQAAFPLGGASPRYLYLASKQSNKWGHPRGYRIQTVSFAGGPMPQNSPMERAFSWGRYQLAITQRKETEPSSSSVFNQNDPWTPTVDFSDFINNETIAGKDLVAWVTAGFLHIPHAEDIPNTVTVGNGVGFFLRPYNFFDQEPSMDSADSIYFREGQDAGSCEINPLACLPQAATCAPDLPVFSHGGYPEY
Km [1]: 1.77±0.24 mM mM
kcat [1]: 1.23 ± 0.06 s⁻¹
kcat/Km [1]: 695 M⁻¹ s⁻¹
Km [2]: 0.74±0.15 mM mM
kcat [2]: 1.15 ± 0.06 s⁻¹
kcat/Km [2]: 1550 M⁻¹ s⁻¹

From article PMC2659760
